In patent US6849458 (dated 2005):

How the values were obtained:
[1] = molecular target: T1, acidic fibroblast growth factor (aFGF) (UniProt P05230 16-155, limits assumed); assay: microplate thermal shift assay, turbidity signal, 50 µM ligand
[2] = molecular target: T1, acidic fibroblast growth factor (aFGF); assay: microplate thermal shift assay, turbidity signal; Kd at 298 K estimated with equation (3)
[3] = molecular target: T1, acidic fibroblast growth factor (aFGF); assay: microplate thermal shift assay, turbidity signal; Kd at Tm (322.15 K) calculated with equation (1)
[4] = molecular target: human α-thrombin (human), P00734; assay: microplate thermal shift assay, 1,8-ANS fluorescence, 50 µM ligand, single ligand
[5] = molecular target: human α-thrombin (human), P00734; assay: microplate thermal shift assay; Kd at Tm of Hirugen for thrombin with 50 µM 3dp-4660 present
[6] = molecular target: human α-thrombin (human), P00734; assay: microplate thermal shift assay; Kd at 298 K of Hirugen for thrombin with 50 µM 3dp-4660 present
[7] = molecular target: human α-thrombin (human), P00734; assay: microplate thermal shift assay; Kd at Tm of Hirugen for thrombin with 200 µM heparin 5000 present
[8] = molecular target: human α-thrombin (human), P00734; assay: microplate thermal shift assay; Kd at 298 K of Hirugen for thrombin with 200 µM heparin 5000 present
[9] = molecular target: human α-thrombin (human), P00734; assay: microplate thermal shift assay; 50 µM Hirugen added to thrombin with 50 µM 3dp-4660 present, shift against TH/3dp-4660
[10] = molecular target: human α-thrombin (human), P00734; assay: microplate thermal shift assay; 50 µM Hirugen added to thrombin with 200 µM heparin 5000 present, shift against TH/heparin 5000

T1 sequence (P05230 16-155 limits assumed): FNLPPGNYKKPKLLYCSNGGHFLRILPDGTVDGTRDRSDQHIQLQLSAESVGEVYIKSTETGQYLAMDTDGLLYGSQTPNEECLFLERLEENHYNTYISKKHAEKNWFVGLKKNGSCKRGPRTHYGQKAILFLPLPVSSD

## EEEEE
[1]
  ΔTm: 0 ° K

## EEEEEEEE
[1]
  ΔTm: 5 ° K
[2]
  Kd: 3.04 µM
[3]
  Kd: 10.1 µM

## DGDFEEIPEEYL (modifications not checked) [Hirugen (hirudin 53-64), P01050 53-64]
[4]
  ΔTm: 5.8 ° K
[5]
  Kd: 0.731 µM
[6]
  Kd: 0.054 µM
[7]
  Kd: 4.25 µM
[8]
  Kd: 0.478 µM
[9]
  ΔTm: 4.6 ° K
[10]
  ΔTm: 2.6 ° K
